Test results: patent WO2021180110A1

Target: CD147 (human) (UniProt P35613)
Experiment: SPR, BIAcore 3000, CD147 amine-coupled on CM5 chip, Spike-RBD as analyte

Question: How did the Kd turn out when “new coronavirus S protein (COVID-19 Spike-RBD) (from UniProt P0DTC2 319-541) (ligand; other documents disagree on this pair)” was run?
Answer: 185 nM

Question: What about the koff of the same substance?
Answer: 0.00206 s⁻¹

Question: What about the kon of the same substance?
Answer: 11100 M⁻¹ s⁻¹
